Measurements published in the nanobody polyreactivity screen of Harvey et al. (2022).

assay: yeast display, Sf9 membrane polyspecificity reagent, FACS + sequencing; frameworks hold sequencing errors
Summary of the method: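 Nanobodies from a synthetic yeast display library (Saccharomyces cerevisiae BJ5465), induced 36–48 hours with galactose, were stained 1 hour at 4 °C with 10% biotinylated, detergent-solubilized Sf9 membrane reagent, enriched on streptavidin microbeads, then FACS-sorted. Anti-HA (expression) and streptavidin (reagent binding) fluorescence set low and high (top ~1%) gates. Polyreactivity labels come from the gate of origin. Genes were colony-PCR amplified, MiSeq 2 × 250 sequenced and filtered by CDR length.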

Row | Sequence | polyreactivity (PSR sort gate)
1 | QVQLVESGGGLVQAGGSLRLSFAASGSTFRYNTRGWYRQAPGKEREVVATITWDTDSTYYADSVKGRFTISRDNAKNTVYLQMNSLKPEDTAVYYCAAETTWADKSYHYLQEYNYCGQGTQVTVSS | low polyreactivity
2 | QVQLGESGGGLVQAGGSLRLSCAASGRTFVDNHMGWYRQAPGKERELVAAITWRGGGTYYADSVKGRFTISRYNAKNTVYLQMNSLKPEDTAVYYSAADQRPPFVEPRGLSTGEFDYWGQGTQVTVSS | low polyreactivity
3 | QVQLVESGGGLVQAGGSLRLSCAASGRIFVVNDMGWYRQAPGKERELVAAMNSGGRTNYADSVKGRFTISRDNAKNTVYLQMPSLKPEDTAVYYCNAKRTGPWFLHVPVYYWGQGTQVTVSS | low polyreactivity
4 | QVQLVESGRGLVQAGGSLRLSCAASGRIFDHYAMGWYRQAPGKERELVAAITWSGANTYYADSVKGRFTISRDNAKNTVYLQMNSLKPEDTAVYYCAAYNGAHSHFGYWGQGTQVTVSS | low polyreactivity
5 | QVHLVESGAGLVKAGGSLRLSCAASGRTFRYNAMGWYRQQPGNERELVATITTRGGSTYYADSVKGRFTISRDNAKNTVYLQMNSLKPEDTAVYYCATKWPVYPTGYDYWGQGTQVTVSS | low polyreactivity
6 | QVQLVESGGGLVQAGGSLRLSCAASGFTNAMGWYRQAPGKERELVAAISYSGDSTNYADSVKGRFTISRDNAKNTVYLQINSVKPEDTAVYYCNASSPYDYDWGQGTHVTVSS | low polyreactivity
7 | QVQLVESGGGLVKAGGSLRLSCAASGSIFKGNVMGWYRQAPGKERELVAGINWSSGRTYYADSVKGRFTISRDNAKNTVYLQMNSLNPEDTAVYYCNAPQYFSYSWPYPREYDYWGQGTQVNVSS | high polyreactivity
8 | QLQLVESGGGLVQAGCSLRLSCADSGRNYTMGRYRQAPGKERELVDASSKSGGSTSYADSVKGRFTISRDNAKNTVYLQLNSLKPEDTAVYYCATALRGSQAYSVRAMNYWGQATQVTVSS | high polyreactivity
9 | QVQLVESGGGLVQAGGSLRLSCAPSGRIFHQYAMGFYRKSPGKERELVAAITWSGGSTHYADSVKGRYTISRDNAKNTVYLQLNSLKPEDTAVYYCAARKSGGLLDYWGQGTQVTVSS | low polyreactivity
10 | QVQLVESGGGLVQAGGSLRLSCAASGSTYTNAMGWYRPAPGKERELVAAITWSGGTTYYADSVKGRLTISRDNAKNTVYLQMNSLKPEDTAVYYCAAEYRWYSRYFNYWGQGTQVTVSS | high polyreactivity
11 | EVQHVESGGGLVQAGGSLRLSCAASGSTFYENAMGWYRQAPGKERELVAAINWSGGRTYYADSVKGRFTISRDNAKNTVNLQMNCLKQEYTAVYYCATREYRYAHSYYWGQGTQVTVSS | high polyreactivity
12 | QVQLVESGGGLVQAGGSLRLSCAASGSIFGSYAMGWNRQAPGKDREFVAGIDQSGSSTYYADSVKGRFTISRDNAKNTVYLQMNSLKPEDTAVYYCAARHRYRTYKMYYWGQGTQVTVSS | high polyreactivity
13 | QVQLVESGGGLVQAGGSLRLSCAASGSTFIRNAMGWYRQAPGKERELVAAISSSGGRTYYADSVKGRFTISRDNAKNTVYLQMNSLKPEDTAVYYCAARAVGAYYSSYSHGAGYYYWGQGTQLTVSS | high polyreactivity
14 | QVQLVESRGGLVQAGGSLRLSCAASGLIFWFNTMGWYRQAPGTERELVAAITSGGGSTYYADSVKGRFTISRDIAKNTVYLQKNSLKPEDTAVYYCNAGAGRWRARQWHDYWGQGTQVTVSS | low polyreactivity
15 | QVQLVESGGGLVQAGGSLRLSCAASGRTFVKYAMGWYRQAPGKERELVAAISSRGSSTYYADSVKGRFTISRDNAKNTVYLQMNSLKPEETAVYYCNAVYYYNPGYDYWGQGTQVTVSS | high polyreactivity
16 | QVQLVESGGGLVQAGGSLRLSCPASGFIFQHYAMGWYRQAPGKERELVAAIDFTDGSTYYADSVKGRFTISRDNAKNTVYLQMNSLKPEDTAVYYCNALDYLYGGIYLDEDYWGQGTQVTVSS | low polyreactivity
17 | QVQLVESGRRLVQAGGSLRLSCAASGLTLYKNGMGWYRKAPGQVRELVAVISRSGGRTYYADSVKGRFTISRDNAKNTVYVQMNSLKPEDTAVYYCAARQYGPRYTYYYWGQGTQVTVSS | high polyreactivity
18 | QVQLVESGGGLVQAGGSLRLICAATGITFEGYAMGWYRQAPGKERELVAAIRSSGTSTYYADSVKGRFTISRDNAKNTVYLQMNSLKPEDTAVYYCNRARSSSRYDYWGQGTQVTVSS | low polyreactivity
19 | QVQLVESCGGLVQAGGSLRLSCAASGSIFRYNAMGWYRQAPWKEWELVAAIRSGSGTNYADSVKGRFTISRDNAKNTVFLQMNSLKPEDTAVYYCNAQPWYRTKYDYWGQGNQVTVSS | low polyreactivity
20 | QVQLVESGGVLVQAGGSLRFSCAASGFFFSSNAIGWYRQAPGKERELVAAISRSVGSTYYADSVKGRFTISRDNAKNTVYLQMNSLKPEDTAVYYCAARIGSYRKYRYDYWGQGTQVTVSS | high polyreactivity
21 | QVQLVESGGGLVQAGGSLRVSCAASGFTFPWYAMGWYRPAPGKERELVASISYRGDSTYYADSVKGRFTISRDNAKITVYLQMNSLKPEDTSVYYCNKRLDSYYLPGFDYWGQGTQVTVSS | low polyreactivity
22 | QVQLVESGGGLVQAGGSLRLSCAASGRTFSGYVMGWYRQAPGKERELVATINGSGASTYYADSVKGRFTISRDNAKNTVYLQTNSLKPEDTAVYYCAAKRYRPKYEYYYWGQGTQVTVSS | high polyreactivity

Row | Sequence | polyreactivity (PSR sort gate)
23 | QVQLVESGGGLVQAGGSLRLSCAASGSIFYYNVMGWYRQAPGKERELVAAIDIDGSTYYADSVKGRFTISRDNAKNTVYLQMNSLKPEDTAVYYCNAQAPYWFSFYSDHKYDYWGQGTQVTVSS | low polyreactivity
24 | QVQLVESGGGVLQAGGSLRLSCAASGSTFAFYAMVRYREAPGKVRELVAAISRSGGRTYYADSVKGRFTISRDNAKNTVYLQMNSLIPEDTAVYYCAAPSGITTGPHREYDYWGLGTQVTVSS | high polyreactivity
25 | QVQLVESGGGLVQAGGSLRLSCAASGFIFYRNAMGWYRQAPGKERELVAAISKSGGITYYADSVKGRFTISRDNAKNTVYLQMNSLKPEDTAVYYCAKASQNGYDYWGQGTQVTVSS | high polyreactivity
26 | QVHLVESGGGLVQAGGSLPLSCAASGIIFGGYDMGWYRPAPGIERELVAAISWSGGSTYYADSVKGRFTISRDNAKNTVYLPMNSLKPEDTAVYYCAAAYYAPTRVYYYWGQGTQVTVSS | low polyreactivity
27 | QFQLVESGGGFVQAGGSLRLSCAASGSIFLYNDMGWYRQAPGKDRELLPAITSDGSTNYADSVKGRFTISRDNAKNTVYLQMNSLKPEDTAVYYCAADALWFYLNWYYGGTAYGYWGQGTQVTVSS | low polyreactivity
28 | QVQLVESGGGLVQAGGSLSLSCAASGSSFSLYTMGWYRQAPGKERDLVASISQSGGSTYYADSVKGRFTISRDNAKNTVYLQMNSLKPEDTAVYFWNAKGRSGTLTLYYYWGQGTQVTVSS | low polyreactivity
29 | QVQLVESGGGLVQAGGSLRLSCAASGRTIYFNVMGWYRQAPGKERELVAAISGGGSTNYADSVKGRYTISRDNAKNTVYLQMNSLKPEDTAVYYCATGYYSGLIDDYWGQGTQVTVSS | low polyreactivity
30 | QVQLVESGGGLVQAGGSLRLSCAASGSTFDKNAMGWYRQEPGKERELVAAINNGGGTTYYADSVKGRFTISRDNAKNTVYLQMNSLKPEDTAVYYCAAVGKAYWSDYQYRYYYWGQGTQVTVSS | low polyreactivity
31 | QVQLVETGGGLVQAGGSLRLSCAASGRTYLIYAMGWYRQAPGKERELVAAIRDRGATTYYADSVKGRFTISRDNAKNTVYLQMNSLKPEETAVYYCAARNGAYPALKEGDYWGQGTQVTVSS | high polyreactivity
32 | QVQLVESGGGLVQAGGSLRLSCAASGIIFAWYAMGWYRQAPGKERELVAAISYSGGTTYYADSVKGRFTISRDNAKNTVYLQMNSLKPEDTAVYYCAARLHHFFTYDYWGQGTQVTVSS | low polyreactivity
33 | QVQLVESGGGLVQAGGSLSLSCAATGFTFRPYAMAWYRQATGKERELVAAITSGDSTNYADSVKGRFTISRDNAKKSVYLQMISVKAEDTAVFYCAADSTGRPSVSYDYWGQGTQVTVSS | low polyreactivity
34 | QGQLVESGGGLVQAGGKLRLSCAASGSIFVRYAIGWYRQAPGKERELVAAISTRGDTTYYADSVKGRFTNSRDNAKNTVYLQLNSLKPEDTAVFYCAAVASQYPGPRNYDYWGQGTQVTVSS | low polyreactivity
35 | QVQLVESVGCLVQAGGSLRLSCAASGRTVVYGYAMGWYRQDPGKERELVAAITSGGSTNYADSVKGRFTISRDNAKNTVYLQMNSLNPEDSAVYYCNAGTVLISTYDYWGQGTQVTVSS | high polyreactivity
36 | QVQLVESGGGLVQAGGSLRLSCAASGFTFYRNTMGWYRQAPGKERELVATITFSGTRTYYADSVKGRFTISRDNAKNTVYLQMNSLKPEDTAVYYCAADRPRRTKWGGGGYYWGQGTQVTVSS | high polyreactivity
37 | QVQLVESGGGLVQAGGSLRLSCAASGSIFWFNAMGWYRQAPGKEREFVASISRSGGTTYYAHSVKGRFTISRDNAKNTVYLQMNSLKPEDTAVYYFNARAYGNGLGTGYFGKHRYDYWGQGTQVTVSS | low polyreactivity
38 | QVLLVESGGGLVQAGGSLRLSCAASGGTFGAYDMGWYRQAPGKERELVATITSGGRTNYADSVTGRFTISRDNAKNTVYLQMNSLKPVDTAVYYCNARYYGYDAPYHTYEYYYWGQGTQVTVSS | low polyreactivity
39 | QVQLVESGGGLVQAGGSLRLSCAASGGTFQRYVMGWYRQAPGKERELVAAISRSGSTYADSVKGRFTISRDNAKNTVYLQMNSLKPEDTAVYYCNVVRYYRYYLHGYDYWGQGTQVTVSS | high polyreactivity
40 | QVQLQESGRRPGAAGGSPRMSCAASGNIFWVAVMGRYRQEPGQERELVASIGFGCTTYYADSVKCRFTISRDNAKNTVYLQMISLKPEDTAVYYCAAPHYDWGELDYWGQGTQVPVSS | low polyreactivity
41 | QVQLVESGGGLVQAGGSLRLSCAASGLTLGDNAMGWSRQAPGNERELVASITNGGSTNYADSVKGRFTISRDNAKNTVYLQMNSLNPEDTAVYYCAVEWTWRSTAYSGGAFDYWGQGTQVTVSS | low polyreactivity
42 | QVQLVESGGGLVQAGGSLRLSCAASGSISAQNAMGRYRQAPGKERELVATINSGGRTNYADSVKGRFTISRDNAKNTVYLQMNSLNPEDTAVYYCNTVVRGAYTYGDVSKYDYWGQGNQVTVSS | low polyreactivity
43 | QVQLVETGGGLVQAGGSHSLSCAAAGSTFSRYAMGWYRQAPGTETELVAGISWSGGNTYYADSVKGRVTISRDNAKNTVYLQMNSLKPEETAVYYCAADFLEYWVVYGWAEYEYWAQGTQVTVSS | low polyreactivity
